# B1: ARC1628 (ssRNA)
# RNA: GGAGCGCACUCAGCCACAGGUGGCUUAAUACUGUAAAGACGUGCGCGCAGAGGGAUUUUCGACCUCUCUGCUAGC
# modifications: 2'-F all C and U (rRfY)
# B2: ARC1628 (ssRNA)
# RNA: GGAGCGCACUCAGCCACAGGUGGCUUAAUACUGUAAAGACGUGCGCGCAGAGGGAUUUUCGACCUCUCUGCUAGC
# modifications: 2'-F C,U
# B3: ARC646 (mixed)
# RNA: GGGAGAGGAGAGAACGUUCUACACAUGGCUCGAAAGAGGGGCGUGAGGGUGGGGUCGAUCGAUCGAUCAUCGAUG
# modifications: deoxy A,G; 2'-OMe C,U
# B4: ARC642 (mixed)
# RNA: GGGAGAGGAGAGAACGUUCUACAGGCGCAGCCAGCGGGGAGUGAGGGUGGGGGUCGAUCGAUCGAUCAUCGAUG
# modifications: deoxy A,G; 2'-OMe C,U
# B5: ARC611 (mixed)
# RNA: GGGAGAGGAGAGAACGUUCUACAGGCAAGGCAAUUGGGGAGUGUGGGUGGGGGGUCGAUCGAUCGAUCAUCGAUG
# modifications: 2'-deoxy A and G, 2'-OMe C and U (dRmY)
# B6: ARC620 (mixed)
# RNA: GGGAGAGGAGAGAACGUUCUACAGGAAAGGCGCUUGCGGGGGGUGAGGGAGGGGUCGAUCGAUCGAUCAUCGAUG
# modifications: deoxy A,G; 2'-OMe C,U
# B7: ARC1631 (ssRNA)
# RNA: GGAGCGCACUCAGCCACGCCUACAAUUCACUGUGAUAUAUCGAAUUAUAGCCCUGGUUUCGACCUCUCUGCUAGC
# modifications: 2'-F all C and U (rRfY)
# B8: ARC635 (mixed)
# RNA: GGGAGAGGAGAGAACGUUCUACAGGCUCAAAAGAGGGGGAUGUGGGAGGGGGUCGAUCGAUCGAUCAUCGAUG
# modifications: deoxy A,G; 2'-OMe C,U
# B9: ARC1634 (ssRNA)
# RNA: GGAGCGCACUCAGCCACCUUGGGCUUAAUACCUAUCGGAUGUGCGCCUAGCACGGAAUUUCGACCUCUCUGCUAGC
# modifications: 2'-F all C and U (rRfY)
# B10: ARC1634 (ssRNA)
# RNA: GGAGCGCACUCAGCCACCUUGGGCUUAAUACCUAUCGGAUGUGCGCCUAGCACGGAAUUUCGACCUCUCUGCUAGC
# modifications: 2'-F C,U
# B11: ARC621 (mixed)
# RNA: GGGAGAGGAGAGAACGUUCUACAGGCGGUUACGGGGGAUGCGGGUGGGACAGGUCGAUCGAUCGAUCAUCGAUG
# modifications: 2'-deoxy A and G, 2'-OMe C and U (dRmY)
# B12: ARC644 (mixed)
# RNA: GGGAGAGGAGAGAACGUUCUACUAGUGAGGCGGUAACGGGGGGUGAGGGUGGGGUCGAUCGAUCGAUCAUCGAUG
# modifications: deoxy A,G; 2'-OMe C,U
# B13: ARC645 (mixed)
# RNA: GGGAGAGGAGAGAACGUUCUACAGGUAGGCAAGAUAUUGGGGGAAGCGGGUGGGGUCGAUCGAUCGAUCAUCGAUG
# modifications: deoxy A,G; 2'-OMe C,U
# B14: ARC1632 (ssRNA)
# RNA: GGAGCGCACUCAGCCACCGGCUUAAUAUCCAAUAGGAACGUUCGCUCUGAGCAGGCGUUUCGACCUCUCUGCUAGC
# modifications: 2'-F all C and U (rRfY)
# B15: ARC1632 (ssRNA)
# RNA: GGAGCGCACUCAGCCACCGGCUUAAUAUCCAAUAGGAACGUUCGCUCUGAGCAGGCGUUUCGACCUCUCUGCUAGC
# modifications: 2'-F C,U
# B16: ARC1633 (ssRNA)
# RNA: GGAGCGCACUCAGCCACAGCUCGGUGGCUUAAUAUCUAUGUGAACGUGCGCAACAGCUUUCGACCUCUCUGCUAGC
# modifications: 2'-F all C and U (rRfY)
# B17: ARC1633 (ssRNA)
# RNA: GGAGCGCACUCAGCCACAGCUCGGUGGCUUAAUAUCUAUGUGAACGUGCGCAACAGCUUUCGACCUCUCUGCUAGC
# modifications: 2'-F C,U
# B18: ARC1630 (ssRNA)
# RNA: GGAGCGCACUCAGCCACUCUACUCGAUAUAGUUUAUCGAGCCGGUGGUAGAUUAUGAUUUCGACCUCUCUGCUAGC
# modifications: 2'-F all C and U (rRfY)
# B19: ARC1629 (ssRNA)
# RNA: GGAGCGCACUCAGCCACCGUAAUUCACAAGGUCCCUGAGUGCAGGGUUGUAUGUUUGUUUCGACCUCUCUGCUAGC
# modifications: 2'-F all C and U (rRfY)
# B20: ARC643 (mixed)
# RNA: GGGAGAGGAGAGAACGUUCUACAGGCCGAUGAGGGGGAGCAGUGGGUGGGGGGUCGAUCGAUCGAUCAUCGAUG
# modifications: deoxy A,G; 2'-OMe C,U
# B21: ARC628 (mixed)
# RNA: GGGAGAGGAGAGAACGUUCUACAGGCAAGGCAAUUGGGGAGCGUGGGUGGGGGGGUCGAUCGAUCGAUCAUCGAUG
# modifications: deoxy A,G; 2'-OMe C,U
# Key:
# [1] = target: T1, IL-23 (human, p19/p40 heterodimer) (Homo sapiens, UniProt Q9NPF7;P29460 SEQ:20-189,SEQ:23-328); assay: filter; 1X PBS, 0.1 mg/mL BSA, 30 min RT; details: tags: R&D Systems, carrier free; label: 32P
# T1 sequence (Q9NPF7 20-189, chain 1 of 2): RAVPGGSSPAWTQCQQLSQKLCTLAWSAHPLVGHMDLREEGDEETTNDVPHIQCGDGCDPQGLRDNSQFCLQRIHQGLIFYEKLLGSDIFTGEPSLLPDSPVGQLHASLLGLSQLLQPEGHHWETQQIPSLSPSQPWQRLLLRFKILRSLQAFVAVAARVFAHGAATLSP
# T1 sequence (P29460 23-328, chain 2 of 2): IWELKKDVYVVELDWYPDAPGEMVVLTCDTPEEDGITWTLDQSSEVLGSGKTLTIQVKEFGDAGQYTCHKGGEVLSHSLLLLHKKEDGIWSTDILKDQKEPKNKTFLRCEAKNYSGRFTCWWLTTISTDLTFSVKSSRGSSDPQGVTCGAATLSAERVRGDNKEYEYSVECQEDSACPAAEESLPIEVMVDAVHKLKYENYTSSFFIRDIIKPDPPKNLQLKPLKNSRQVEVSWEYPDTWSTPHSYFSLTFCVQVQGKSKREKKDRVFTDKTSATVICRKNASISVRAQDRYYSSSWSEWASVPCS
# Protocol: (§1) rRfY mIL-23 Protein Binding Analysis: Dot blot binding assays were performed throughout the selections to monitor the protein binding affinity of the pools as previously described. When a significant level of binding of RNA in the presence of mIL-23 was observed, the pools were cloned using a TOPO TA cloning kit (Invitrogen, Carlsbad, Calif.) according to the manufacturer's instructions. For both mIL-23 selections, the Round 7 pool templates were cloned, and 16 individual clones from each selection were assayed using an 8-point mIL-23 titration. Seven of the 32 total clones screened had specific binding curves and are listed below in Table 16. […] Clones with high affinity to mIL-23 were subsequently screened for protein binding against mouse IL-12, human IL-23 and human IL-12 in the same manner.
# [2] = target: T2, IL-12 (mouse, p35/p40 heterodimer) (Mus musculus, UniProt P43431;P43432 SEQ:23-215,SEQ:23-335); assay: filter; 1X PBS, 0.1 mg/mL BSA, 30 min RT; details: label: 32P
# T2 sequence 1: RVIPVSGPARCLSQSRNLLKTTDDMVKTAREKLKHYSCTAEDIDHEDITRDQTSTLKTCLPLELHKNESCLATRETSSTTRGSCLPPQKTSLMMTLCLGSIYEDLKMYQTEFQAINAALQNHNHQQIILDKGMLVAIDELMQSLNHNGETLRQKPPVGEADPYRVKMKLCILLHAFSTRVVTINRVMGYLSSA
# T2 sequence 2: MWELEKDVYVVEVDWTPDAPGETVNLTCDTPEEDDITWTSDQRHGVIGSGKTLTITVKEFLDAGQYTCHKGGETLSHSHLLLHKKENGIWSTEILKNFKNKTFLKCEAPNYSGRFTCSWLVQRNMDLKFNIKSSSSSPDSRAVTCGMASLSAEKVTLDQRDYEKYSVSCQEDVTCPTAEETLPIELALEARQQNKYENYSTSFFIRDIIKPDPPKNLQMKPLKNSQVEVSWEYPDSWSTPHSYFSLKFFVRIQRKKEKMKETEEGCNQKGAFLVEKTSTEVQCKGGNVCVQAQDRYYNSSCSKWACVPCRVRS
# Protocol: as §1
# [3] = target: T3, IL-23 (mouse, p19/p40 heterodimer) (Mus musculus, UniProt Q9EQ14;P43432 SEQ:22-196,SEQ:23-335); assay: filter; 1X PBS, 0.1 mg/mL BSA, 30 min RT; details: tags: isolated in-house; label: 32P
# T3 sequence 1: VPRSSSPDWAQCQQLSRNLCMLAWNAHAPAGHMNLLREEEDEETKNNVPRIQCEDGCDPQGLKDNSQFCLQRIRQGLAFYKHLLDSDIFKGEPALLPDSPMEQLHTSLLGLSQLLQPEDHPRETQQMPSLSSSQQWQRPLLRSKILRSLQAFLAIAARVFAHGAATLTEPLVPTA
# T3 sequence 2: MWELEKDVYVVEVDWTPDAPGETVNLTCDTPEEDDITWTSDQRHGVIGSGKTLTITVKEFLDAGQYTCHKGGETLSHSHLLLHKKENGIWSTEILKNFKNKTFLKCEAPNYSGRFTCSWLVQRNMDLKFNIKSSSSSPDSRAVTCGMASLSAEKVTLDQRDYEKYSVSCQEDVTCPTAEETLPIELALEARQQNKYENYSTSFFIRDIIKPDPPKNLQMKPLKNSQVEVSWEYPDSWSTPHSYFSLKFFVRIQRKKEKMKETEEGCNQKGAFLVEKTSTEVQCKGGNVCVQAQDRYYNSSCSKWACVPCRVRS
# Protocol: as §1
# [4] = target: T4, IL-12 (human, p35/p40 heterodimer) (Homo sapiens, UniProt P29459;P29460 SEQ:57-253,SEQ:23-328); assay: filter; 1X PBS, 0.1 mg/mL BSA, 30 min RT; details: label: 32P
# T4 sequence (P29459 23-219, chain 1 of 2): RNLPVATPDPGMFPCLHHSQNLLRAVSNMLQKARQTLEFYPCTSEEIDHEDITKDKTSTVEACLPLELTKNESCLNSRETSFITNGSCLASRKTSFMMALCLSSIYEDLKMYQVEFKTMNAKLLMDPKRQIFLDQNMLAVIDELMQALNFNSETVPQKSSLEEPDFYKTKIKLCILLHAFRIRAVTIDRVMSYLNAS
# T4 sequence (P29460 23-328, chain 2 of 2): as the sequence (P29460 23-328, chain 2 of 2) above
# Protocol: as §1
# [5] = target: T3, IL-23 (mouse, p19/p40 heterodimer); assay: cell_activity; TransAM STAT3; details: tags: isolated in-house
# Protocol: In summary, the cell-based assay was conducted by isolating the peripheral blood mononuclear cells (PBMCs) from whole blood using a Histopaque gradient (Sigma, St. Louis, Mo.). The PBMCs were cultured for 3 to 5 days at 37° C./5% CO₂ in Peripheral Blood Medium (Sigma) which contains PHA, supplemented with IL-2 (100 units/mL) (R&D Systems, Minneapolis, Minn.), to generate PHA Blasts. To test IL-23 aptamers, the PHA Blasts were washed twice with 1×PBS, then serum starved for four hours in RPMI, 0.20% FBS. After serum starvation, approximately 2 million cells were aliquotted into appropriately labeled eppendorf tubes. hIL-23 at a final constant concentration of 3 ng/mL (R&D Systems, Minneapolis, Minn.) was combined with a dilution series of various IL-23 aptamers as described in Example 1, and the cytokine/aptamer mixture was added to the aliquotted cells in a final volume of 100 μl and incubated at 37° C. for 10-12 minutes. The incubation reaction was stopped by adding 1 mL of ice-cold PBS with 1.5 mM Na₃VO₄. Cell lysates were made using the lysis buffer provided by the TransAM™ STAT 3 assay following the manufacturer's instructions. FIG. 20 depicts a flow summary of the protocol used for the cell based assay.
# The protocol used was identical to that previously described except mouse IL-23 was used to induce STAT 3 activation in PHA Blasts at a concentration of 30 ng/mL, instead of using human IL-23 at a concentration of 3 ng/mL.
# [6] = target: T1, IL-23 (human, p19/p40 heterodimer); assay: filter; PBS, tRNA, ssDNA, BSA; details: tags: R&D Systems, carrier free
# Protocol: (§2) The clones were 5′end labeled with γ-³²P ATP, and were assayed for both IL-23 and IL-12 binding in a 3-point dot blot screen (0 nM, 20 nM, and 100 nM h-IL-23; 0 nM, 20 nM, and 100 nM h-IL-12) (data not shown). […] KD values were determined by fitting an equation describing a 1:1 RNA:protein complex to the resulting data (fraction aptamer bound=amplitude*([IL-23]/(KD+[IL-23]))+background binding) (KaleidaGraph v. 3.51, Synergy Software). Results of protein binding characterization for the higher affinity clones are tabulated in Table 13, and corresponding clone sequences are listed in Table 12.
# [7] = target: T4, IL-12 (human, p35/p40 heterodimer); assay: filter; PBS, tRNA, ssDNA, BSA
# Protocol: as §2
# [8] = target: T1, IL-23 (human, p19/p40 heterodimer); assay: filter; 1X PBS, tRNA, ssDNA, BSA, 30 min RT; details: tags: R&D Systems, carrier free; label: 5'-32P; G4 (predicted)
# Protocol: as §2
# [9] = target: T4, IL-12 (human, p35/p40 heterodimer); assay: filter; 1X PBS, tRNA, ssDNA, BSA, 30 min RT; details: label: 5'-32P; G4 (predicted)
# Protocol: as §2
binder,measurement,setting,value
B1,Kd,[1],52 nM
same,Kd,[2],6 nM
same,Kd,[3],2 nM
same,Kd,[4],161 nM
B2,IC50,[5],37 nM
B3,Kd,[6],208 nM
same,Kd,[7],383 nM
B4,Kd,[6],37.2 nM
same,Kd,[7],188 nM
B5,Kd,[8],21.3 nM
same,Kd,[9],123 nM
B6,Kd,[6],44.8 nM
same,Kd,[7],179 nM
B7,Kd,[1],39 nM
same,Kd,[2],72 nM
same,Kd,[3],33 nM
same,Kd,[4],69 nM
B8,Kd,[6],172 nM
same,Kd,[7],431 nM
B9,Kd,[1],39 nM
same,Kd,[2],29 nM
same,Kd,[3],3 nM
same,Kd,[4],63 nM
B10,IC50,[5],9 nM
B11,Kd,[8],28.8 nM
same,Kd,[9],112 nM
B12,Kd,[6],34.5 nM
same,Kd,[7],193 nM
"GGGCACUCAGCCACAGCUCGGUGGCUUAAUAUCUAUGUGAACGUGCCC (ssRNA, 2'-F C,U) [ARC1633 minimer]",IC50,[5],7 nM
B13,Kd,[6],33.5 nM
same,Kd,[7],137 nM
B14,Kd,[1],91 nM
same,Kd,[2],16 nM
same,Kd,[3],13 nM
same,Kd,[4],186 nM
B15,IC50,[5],18 nM
B16,Kd,[1],79 nM
same,Kd,[2],44 nM
same,Kd,[3],17 nM
same,Kd,[4],195 nM
B17,IC50,[5],31 nM
B18,Kd,[1],65 nM
same,Kd,[2],18 nM
same,Kd,[3],14 nM
same,Kd,[4],239 nM
B19,Kd,[1],31 nM
same,Kd,[2],103 nM
same,Kd,[3],34 nM
same,Kd,[4],75 nM
B20,Kd,[6],71.6 nM
same,Kd,[7],309 nM
B21,Kd,[6],57.8 nM
same,Kd,[7],146 nM

# — patent US20060193821, “Aptamers to the human IL-12 cytokine family and their use as autoimmune disease therapeutics” (published 2006)
